Publication doi:10.1101/2024.06.16.599208, “A transcription-driven microgel network poised near the sol-gel transition”

Target: SAF-A SPRNK domain (SPRY/PNK) WT (UniProt Q00839 221-679)
Assay: EMSA; 8 mM HEPES pH 7.5, 60 mM KOAc, 16 mM MgOAc; 1 h on ice; 0.125 uM RNA, 0-8 uM protein; 7% acrylamide gel; n=3
Conditions: protein: recombinant; (nickel IMAC); label: DY681

Chain of SAF-A SPRNK domain (SPRY/PNK) WT (Q00839 221-679): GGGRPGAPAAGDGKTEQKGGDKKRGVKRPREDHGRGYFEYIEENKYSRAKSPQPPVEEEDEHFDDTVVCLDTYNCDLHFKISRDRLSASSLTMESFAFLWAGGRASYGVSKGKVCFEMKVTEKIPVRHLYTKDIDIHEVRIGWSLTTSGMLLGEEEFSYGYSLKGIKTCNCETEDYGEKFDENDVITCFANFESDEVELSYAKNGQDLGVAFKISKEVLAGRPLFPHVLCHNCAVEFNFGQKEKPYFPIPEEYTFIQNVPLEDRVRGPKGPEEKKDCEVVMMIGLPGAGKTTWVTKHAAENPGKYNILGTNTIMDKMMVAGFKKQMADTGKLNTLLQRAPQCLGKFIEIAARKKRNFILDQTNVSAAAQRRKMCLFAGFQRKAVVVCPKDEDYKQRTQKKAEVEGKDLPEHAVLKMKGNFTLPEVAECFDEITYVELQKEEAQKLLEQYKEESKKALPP

Q: Does AAAAAAAAAAAAAAAAAAAA (ssRNA) [oligoA20-DY681] bind?
A: Result: binds
